Laboratory results reported in paper PMC5591402, “Facile Affinity Maturation of Antibody Variable Domains Using Natural Diversity Mutagenesis” (Frontiers in Immunology, 2017).
Where no end group is shown, it is not given here.

B1: N2 VHH alanine mutant L52b (VHH)
VHH: QGQLVESGGGSVQAGGSLRLSCAASGIDSSSYCMGWFRQRPGKEREGVARINGAGGVKTAYADSVKDRFTISRDNAENTVYLQMNSLKPEDTAIYYCAAKFSPGYCGGSWSNFGYWGQGTQVTVSS
notes: PDB 2X6M) with the stated change; Kabat numbering
B2: N2 VHH alanine mutant G100b (VHH)
VHH: QGQLVESGGGSVQAGGSLRLSCAASGIDSSSYCMGWFRQRPGKEREGVARINGLGGVKTAYADSVKDRFTISRDNAENTVYLQMNSLKPEDTAIYYCAAKFSPGYCAGSWSNFGYWGQGTQVTVSS
notes: as for B1
B3: N2 VHH alanine mutant V55 (VHH)
VHH: QGQLVESGGGSVQAGGSLRLSCAASGIDSSSYCMGWFRQRPGKEREGVARINGLGGAKTAYADSVKDRFTISRDNAENTVYLQMNSLKPEDTAIYYCAAKFSPGYCGGSWSNFGYWGQGTQVTVSS
notes: as for B1
B4: N2 VHH alanine mutant S100d (VHH)
VHH: QGQLVESGGGSVQAGGSLRLSCAASGIDSSSYCMGWFRQRPGKEREGVARINGLGGVKTAYADSVKDRFTISRDNAENTVYLQMNSLKPEDTAIYYCAAKFSPGYCGGAWSNFGYWGQGTQVTVSS
notes: as for B1
B5: N2 VHH alanine mutant G53 (VHH)
VHH: QGQLVESGGGSVQAGGSLRLSCAASGIDSSSYCMGWFRQRPGKEREGVARINGLAGVKTAYADSVKDRFTISRDNAENTVYLQMNSLKPEDTAIYYCAAKFSPGYCGGSWSNFGYWGQGTQVTVSS
notes: as for B1
B6: N2 VHH alanine mutant G99 (VHH)
VHH: QGQLVESGGGSVQAGGSLRLSCAASGIDSSSYCMGWFRQRPGKEREGVARINGLGGVKTAYADSVKDRFTISRDNAENTVYLQMNSLKPEDTAIYYCAAKFSPAYCGGSWSNFGYWGQGTQVTVSS
notes: as for B1
B7: N2 VHH alanine mutant G100c (VHH)
VHH: QGQLVESGGGSVQAGGSLRLSCAASGIDSSSYCMGWFRQRPGKEREGVARINGLGGVKTAYADSVKDRFTISRDNAENTVYLQMNSLKPEDTAIYYCAAKFSPGYCGASWSNFGYWGQGTQVTVSS
notes: as for B1
B8: N2 VHH alanine mutant S100f (VHH)
VHH: QGQLVESGGGSVQAGGSLRLSCAASGIDSSSYCMGWFRQRPGKEREGVARINGLGGVKTAYADSVKDRFTISRDNAENTVYLQMNSLKPEDTAIYYCAAKFSPGYCGGSWANFGYWGQGTQVTVSS
notes: as for B1
B9: N2 VHH alanine mutant N100g (VHH)
VHH: QGQLVESGGGSVQAGGSLRLSCAASGIDSSSYCMGWFRQRPGKEREGVARINGLGGVKTAYADSVKDRFTISRDNAENTVYLQMNSLKPEDTAIYYCAAKFSPGYCGGSWSAFGYWGQGTQVTVSS
notes: as for B1
B10: N2 VHH alanine mutant S97 (VHH)
VHH: QGQLVESGGGSVQAGGSLRLSCAASGIDSSSYCMGWFRQRPGKEREGVARINGLGGVKTAYADSVKDRFTISRDNAENTVYLQMNSLKPEDTAIYYCAAKFAPGYCGGSWSNFGYWGQGTQVTVSS
notes: as for B1
B11: N2 VHH alanine mutant F96 (VHH)
VHH: QGQLVESGGGSVQAGGSLRLSCAASGIDSSSYCMGWFRQRPGKEREGVARINGLGGVKTAYADSVKDRFTISRDNAENTVYLQMNSLKPEDTAIYYCAAKASPGYCGGSWSNFGYWGQGTQVTVSS
notes: as for B1
B12: wild-type N2 VHH antibody (VHH)
VHH: QGQLVESGGGSVQAGGSLRLSCAASGIDSSSYCMGWFRQRPGKEREGVARINGLGGVKTAYADSVKDRFTISRDNAENTVYLQMNSLKPEDTAIYYCAAKFSPGYCGGSWSNFGYWGQGTQVTVSS
notes: also called NbSyn2; wild-type N2 variable domain; not shown: His6, C-terminal, kept
B13: N2.17 reversion mutant S100f (VHH)
VHH: QGQLVESGGGSVQAGGSLRLSCAASGIDSSSYCMGWFRQRPGKEREGVARINGWGGVKTAYADSVKDRFTISRDNAENTVYLQMNSLKPEDTAIYYCAAKSSPGYCGGTWSNFGYWGQGTQVTVSS
notes: as the VHH chain of m4 (N2.17) with F100f reverted to the wild-type S100f; PDB 2X6M); Kabat numbering; also called reversion mutation S100f
B14: N2.17 reversion mutant S100d (VHH)
VHH: QGQLVESGGGSVQAGGSLRLSCAASGIDSSSYCMGWFRQRPGKEREGVARINGWGGVKTAYADSVKDRFTISRDNAENTVYLQMNSLKPEDTAIYYCAAKSSPGYCGGSWFNFGYWGQGTQVTVSS
notes: as the VHH chain of m4 (N2.17) with T100d reverted to the wild-type S100d; PDB 2X6M); Kabat numbering
B15: N2.12 reversion mutant F96 (VHH)
VHH: QGQLVESGGGSVQAGGSLRLSCAASGIDSSSYCMGWFRQRPGKEREGVGRINGWRGIKTAYADSVKDRFTISRDNAENTVYLQMNSLKPEDTAIYYCAAKFSPGYCGGTWSNFGYWGQGTQVTVSS
notes: as the VHH chain of m3 (N2.12) with S96 reverted to the wild-type F96; PDB 2X6M); Kabat numbering; also called reversion mutation (F96)
B16: N2.17 reversion mutant F96 (VHH)
VHH: QGQLVESGGGSVQAGGSLRLSCAASGIDSSSYCMGWFRQRPGKEREGVARINGWGGVKTAYADSVKDRFTISRDNAENTVYLQMNSLKPEDTAIYYCAAKFSPGYCGGTWFNFGYWGQGTQVTVSS
notes: as the VHH chain of m4 (N2.17) with S96 reverted to the wild-type F96; PDB 2X6M); Kabat numbering
B17: N2.17 reversion mutant L52b (VHH)
VHH: QGQLVESGGGSVQAGGSLRLSCAASGIDSSSYCMGWFRQRPGKEREGVARINGLGGVKTAYADSVKDRFTISRDNAENTVYLQMNSLKPEDTAIYYCAAKSSPGYCGGTWFNFGYWGQGTQVTVSS
notes: as the VHH chain of m4 (N2.17) with W52b reverted to the wild-type L52b; PDB 2X6M); Kabat numbering
B18: N2.12 reversion mutant L52b (VHH)
VHH: QGQLVESGGGSVQAGGSLRLSCAASGIDSSSYCMGWFRQRPGKEREGVGRINGLRGIKTAYADSVKDRFTISRDNAENTVYLQMNSLKPEDTAIYYCAAKSSPGYCGGTWSNFGYWGQGTQVTVSS
notes: as the VHH chain of m3 (N2.12) with W52b reverted to the wild-type L52b; PDB 2X6M); Kabat numbering
B19: N2.12 reversion mutant S100d (VHH)
VHH: QGQLVESGGGSVQAGGSLRLSCAASGIDSSSYCMGWFRQRPGKEREGVGRINGWRGIKTAYADSVKDRFTISRDNAENTVYLQMNSLKPEDTAIYYCAAKSSPGYCGGSWSNFGYWGQGTQVTVSS
notes: as the VHH chain of m3 (N2.12) with T100d reverted to the wild-type S100d; PDB 2X6M); Kabat numbering
B20: N2.12 VHH (VHH)
VHH: QGQLVESGGGSVQAGGSLRLSCAASGIDSSSYCMGWFRQRPGKEREGVGRINGWRGIKTAYADSVKDRFTISRDNAENTVYLQMNSLKPEDTAIYYCAAKSSPGYCGGTWSNFGYWGQGTQVTVSS
notes: PDB 2X6M) with six CDR mutations; Kabat numbering; Selected from the natural diversity library by yeast display; also called N2.12 variant; not shown: His6, C-terminal, kept
B21: N2.5 VHH (VHH)
VHH: QGQLVESGGGSVQAGGSLRLSCAASGIDSSSYCMGWFRQRPGKEREGVARINGLSGVKTAYADSVKDRFTISRDNAENTVYLQMNSLKPEDTAIYYCAAKSSPGYCGGTWFSFGYWGQGTQVTVSS
notes: PDB 2X6M) with mutations in CDR2 and CDR3; One of the 17 unique variants of the enriched library (1-6 mutations in CDR2 and CDR3)
B22: N2.16 VHH (VHH)
VHH: QGQLVESGGGSVQAGGSLRLSCAASGIDSSSYCMGWFRQRPGKEREGVGRINGWSGVKTAYADSVKDRFTISRDNAENTVYLQMNSLKPEDTAIYYCAAKSSPGYCGGTWYNFGYWGQGTQVTVSS
notes: PDB 2X6M) with mutations in CDR2 and CDR3; One of the 17 unique variants of the enriched library
B23: N2.12 reversion mutant A49 (VHH)
VHH: QGQLVESGGGSVQAGGSLRLSCAASGIDSSSYCMGWFRQRPGKEREGVARINGWRGIKTAYADSVKDRFTISRDNAENTVYLQMNSLKPEDTAIYYCAAKSSPGYCGGTWSNFGYWGQGTQVTVSS
notes: as the VHH chain of m3 (N2.12) with G49 reverted to the wild-type A49; PDB 2X6M); Kabat numbering; also called N2.12 with A49
B24: N2.17 VHH (VHH)
VHH: QGQLVESGGGSVQAGGSLRLSCAASGIDSSSYCMGWFRQRPGKEREGVARINGWGGVKTAYADSVKDRFTISRDNAENTVYLQMNSLKPEDTAIYYCAAKSSPGYCGGTWFNFGYWGQGTQVTVSS
notes: PDB 2X6M) with four CDR mutations; Kabat numbering; Selected from the natural diversity library by yeast display; also called N2.17 variant; not shown: His6, C-terminal, kept
B25: N2.12 reversion mutant G53 (VHH)
VHH: QGQLVESGGGSVQAGGSLRLSCAASGIDSSSYCMGWFRQRPGKEREGVGRINGWGGIKTAYADSVKDRFTISRDNAENTVYLQMNSLKPEDTAIYYCAAKSSPGYCGGTWSNFGYWGQGTQVTVSS
notes: as the VHH chain of m3 (N2.12) with R53 reverted to the wild-type G53; PDB 2X6M); Kabat numbering

Target: T1, TAMRA-labeled α-synuclein peptide (Homo sapiens, also: TAMRA fluorophore, position not given here)
T1 construct: the TAMRA peptide is called the α-synuclein peptide; also called C-terminal α-synuclein peptide; antigen; source: synthetic peptide, bought: Genemed Synthesis Inc
T1 chain: GYQDYEPEA
Test: fluorescence polarisation; alanine scan: single VHH concentrations (44, 133 and 400 nM) with 2 nM TAMRA-labeled α-synuclein peptide; background-subtracted signal of the mutant divided by that of wild type
Details: both partners purified
For B1, the “binding relative to wild type (normalised polarisation signal)” value was over 50%.
B2 was tested, and the “binding relative to wild type (normalised polarisation signal)” value was over 50%.
With B3 the “binding relative to wild type (normalised polarisation signal)” value was over 50%.
With B4 the “binding relative to wild type (normalised polarisation signal)” value was over 50%.
In the case of B5, the “binding relative to wild type (normalised polarisation signal)” value is reported as over 50%.
B6 was tested, and the “binding relative to wild type (normalised polarisation signal)” value was over 50%.
In the case of B7, the “binding relative to wild type (normalised polarisation signal)” value is reported as over 50%.
For B8, the “binding relative to wild type (normalised polarisation signal)” value was over 50%.
In the case of B9, the “binding relative to wild type (normalised polarisation signal)” value is reported as over 50%.
In the case of B10, the “binding relative to wild type (normalised polarisation signal)” value is reported as over 50%.
For B11, the “binding relative to wild type (normalised polarisation signal)” value was over 50%.

Target: T1, TAMRA-labeled α-synuclein peptide
Test: fluorescence polarisation; VHH titrated (0.8 nM-1.6 µM) against 2 nM TAMRA-labeled α-synuclein peptide; PBS with 0.001% BSA and 0.001% Tween 20; room temperature, 3 h; fit that accounts for antibody not in excess of antigen
Details: both partners purified
B12 gave a Kd of 57.6 nM.
B13: binds.
B14: binds.
B15: binds.
B16: binds.
B17: binds.
B18: binds.
B19: binds.
Binder B20 has a Kd of 7.6 nM.
B21: binds.
B22: binds.
For B23, the “fold affinity enhancement relative to wild type” value was over 7 fold.
B24 was tested, and the Kd was 13.2 nM.
B25: binds.
